# Assays:
# [1] = biological target: Diaphorase; assay: peptide array, 1 uM labeled diaphorase, no FAD
# [2] = biological target: Diaphorase; assay: peptide array, 10 uM labeled diaphorase, with FAD
# [3] = biological target: Diaphorase; assay: peptide array, 1 uM diaphorase, binding without FAD / with FAD
# [4] = biological target: Diaphorase; assay: peptide array, 10 uM labeled diaphorase, no FAD
# [5] = biological target: Diaphorase; assay: peptide array, 1 uM labeled diaphorase, with FAD
# [6] = biological target: Diaphorase; assay: peptide array, 10 uM diaphorase, binding without FAD / with FAD
Binder,fluorescence [1],fluorescence [2],noFAD/FAD [3],fluorescence [4],fluorescence [5],noFAD/FAD [6]
WRGFKFADGGSG,5650,31500,2.62,58900,2160,1.87
DLDKAFGGSG,607,2140,0.296,1850,2050,0.865
EAVQKLLFSGSG,1460,17700,0.602,5390,2420,0.304
VKDGANKHYWRVSGSG,2220,17800,0.18,20400,12300,1.14
LDRLGEYQFSGSG,709,7140,0.609,3000,1160,0.419
KNRPYNKDLEDGSG,733,2590,0.142,2520,5150,0.974
LLGFLGGSG,2320,40300,0.559,26300,4140,0.652
RFKYPLDGGSG,5760,30400,2.62,55900,2200,1.84
ELFGALFKGGSG,2080,25300,0.612,12900,3400,0.511
YSALFGLQEDGSG,1230,16900,0.583,8530,2100,0.506
KEAPGPRFGGSG,1070,5470,0.129,5610,8280,1.03
SVLEGYQAVFGGSG,1340,21500,0.503,6070,2660,0.282
YVWGLELSGGSG,2610,36300,0.556,17300,4690,0.476
EGYANKLLALFSGSG,1030,10400,0.599,6650,1730,0.639
LAKQNRVEDGSG,770,3700,0.537,2950,1440,0.797
RWKYQKFNGGSG,10200,46200,2.63,61300,3860,1.33
RSHPKHNVGSG,1950,12200,0.504,17000,3880,1.39
QLLQLLFGGSG,3230,53400,0.511,19500,6310,0.366
YRFQSGLPAKDGSG,4040,20200,2.71,50300,1490,2.49
VLSLNQVYSEGSG,1670,21800,0.619,9850,2710,0.452
AFYGLELGGSG,2260,36700,0.541,16500,4180,0.45
YSVDYWYQVDGSG,1800,19200,0.173,19800,10400,1.03
EDEGLSKFEGGSG,561,1380,0.135,1220,4170,0.885
VERASYNLDGSG,759,3370,0.339,2900,2240,0.86
RLQYLFKSDGSG,5780,30600,2.94,64300,1960,2.1
RPLQVQRGGS,5410,41100,0.375,53200,14400,1.3
YNRNAKSSGGSG,4010,18600,2.6,41300,1550,2.23

# Reference: patent US20190064177A1, “INCORPORATING COMPETITIVE BINDING INFORMATION INTO MOLECULAR ARRAY ANALYSIS TO GENERATE FUNCTION NETWORKS OF INTERACTIONS” (ARIZONA BOARD OF REGENTS ON BEHALF OF ARIZONA STATE …, priority 2017, published 2019)
